Assay results: paper PMC12753105

What was measured:
[1] = target: SARS-CoV-2 N-protein Nο (N:P13L/Δ31–33/R203K/G204R), full length (SARS-CoV-2) (UniProt P0DTC9); experiment: mass photometry
[2] = target: SARS-CoV-2 N-protein N:R203K/G204R, full length (SARS-CoV-2) (UniProt P0DTC9); experiment: mass photometry
[3] = target: SARS-CoV-2 N-protein N:G215C* (oxidized), full length (SARS-CoV-2) (UniProt P0DTC9); experiment: mass photometry
[4] = target: SARS-CoV-2 N-protein N:G215C (reduced), full length (SARS-CoV-2) (UniProt P0DTC9); experiment: mass photometry
[5] = target: SARS-CoV-2 N-protein N:G215C (reduced), full length (SARS-CoV-2) (UniProt P0DTC9); experiment: AUC

SARS-CoV-2 N-protein Nο (N:P13L/Δ31–33/R203K/G204R), full length (from UniProt P0DTC9 1-419) (natural protein)
best-fit effective RNP life-time (with SL7 RNA) [1]: 58.5 s

SARS-CoV-2 N-protein N:R203K/G204R, full length (from UniProt P0DTC9 1-419) (natural protein)
best-fit effective RNP life-time (with SL7 RNA) [2]: 54.6 s

SARS-CoV-2 N-protein N:G215C* (oxidized), full length (from UniProt P0DTC9 1-419) (natural protein)
best-fit effective RNP life-time (with SL7 RNA) [3]: 41.8 s

SARS-CoV-2 N-protein N:G215C (reduced), full length (from UniProt P0DTC9 1-419) (natural protein)
best-fit effective RNP life-time (with SL7 RNA) [4]: 231 s | Kd [5]: 1000 nM
